Laboratory results published in article PMC3058899 (Nature, 2010).

T1: RebH (Lentzea aerocolonigenes, UniProt Q8KHZ8)
T1 sequence (Q8KHZ8 1-530): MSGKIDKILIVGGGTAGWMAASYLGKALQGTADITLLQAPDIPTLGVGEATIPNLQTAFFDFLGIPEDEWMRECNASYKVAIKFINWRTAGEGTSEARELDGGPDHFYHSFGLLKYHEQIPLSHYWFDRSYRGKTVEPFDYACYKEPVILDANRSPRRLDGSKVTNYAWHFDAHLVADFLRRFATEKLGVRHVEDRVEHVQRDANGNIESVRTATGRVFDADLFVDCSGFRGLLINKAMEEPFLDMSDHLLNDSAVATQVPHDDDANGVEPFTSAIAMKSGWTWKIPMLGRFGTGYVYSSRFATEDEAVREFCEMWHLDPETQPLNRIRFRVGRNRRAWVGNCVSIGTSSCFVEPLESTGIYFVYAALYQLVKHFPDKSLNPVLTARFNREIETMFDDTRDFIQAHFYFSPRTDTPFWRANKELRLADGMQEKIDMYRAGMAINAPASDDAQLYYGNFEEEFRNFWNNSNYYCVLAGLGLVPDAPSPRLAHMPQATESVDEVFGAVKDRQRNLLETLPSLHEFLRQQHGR

B1: tryptophan decarboxylase (C. roseus) (Catharanthus roseus) (protein)
chain: MGSIDSTNVAMSNSPVGEFKPLEAEEFRKQAHRMVDFIADYYKNVETYPVLSEVEPGYLRKRIPETAPYLPEPLDDIMKDIQKDIIPGMTNWMSPNFYAFFPATVSSAAFLGEMLSTALNSVGFTWVSSPAATELEMIVMDWLAQILKLPKSFMFSGTGGGVIQNTTSESILCTIIAARERALEKLGPDSIGKLVCYGSDQTHTMFPKTCKLAGIYPNNIRLIPTTVETDFGISPQVLRKMVEDDVAAGYVPLFLCATLGTTSTTATDPVDSLSEIANEFGIWIHVDAAYAGSACICPEFRHYLDGIERVDSLSLSPHKWLLAYLDCTCLWVKQPHLLLRALTTNPEYLKNKQSDLDKVVDFKNWQIATGRKFRSLKLWLILRSYGVVNLQSHIRSDVAMGKMFEEWVRSDSRFEIVVPRNFSLVCFRLKPDVSSLHVEEVNKKLLDMLNSTGRVYMTHTIVGGIYMLRLAVGSSLTEEHHVRRVWDLIQKLTDDLLKEA

Assays:
PyrH = PyrH (Streptomyces rugosporus, UniProt A4D0H5); test: LC-MS of 5-chlorotryptophan in transformed C. roseus hairy roots; assay type: cell-based; details: with RebF reductase, chloride; in planta
Sequence of PyrH (A4D0H5 whole entry): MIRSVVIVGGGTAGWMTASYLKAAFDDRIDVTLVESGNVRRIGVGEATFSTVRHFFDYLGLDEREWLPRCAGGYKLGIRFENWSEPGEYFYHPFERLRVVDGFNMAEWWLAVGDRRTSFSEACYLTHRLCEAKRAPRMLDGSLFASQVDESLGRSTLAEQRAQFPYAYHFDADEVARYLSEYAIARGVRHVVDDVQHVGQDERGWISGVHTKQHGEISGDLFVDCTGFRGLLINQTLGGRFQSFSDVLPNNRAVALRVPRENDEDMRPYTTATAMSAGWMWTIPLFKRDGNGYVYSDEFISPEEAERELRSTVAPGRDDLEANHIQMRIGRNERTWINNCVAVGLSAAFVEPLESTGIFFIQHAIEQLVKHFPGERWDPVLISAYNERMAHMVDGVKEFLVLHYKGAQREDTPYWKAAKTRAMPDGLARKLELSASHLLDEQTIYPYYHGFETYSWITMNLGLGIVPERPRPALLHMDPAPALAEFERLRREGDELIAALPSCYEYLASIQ

RebH = biological target: T1, RebH; test: LC-MS of 7-chlorotryptophan in transformed C. roseus hairy roots; assay type: cell-based; details: with RebF reductase, chloride; in planta
[1] = substrate: N[C@@H](Cc1c[nH]c2c(Cl)cccc12)C(=O)O; test: in vitro steady-state kinetics of decarboxylation; assay type: biochemical, Catharanthus roseus
[2] = substrate: N[C@@H](Cc1c[nH]c2ccc(Cl)cc12)C(=O)O; test: in vitro steady-state kinetics of decarboxylation; assay type: biochemical, Catharanthus roseus
[3] = substrate: N[C@@H](Cc1c[nH]c2ccccc12)C(=O)O; test: in vitro steady-state kinetics of decarboxylation; assay type: biochemical, Catharanthus roseus

| Molecule | LC-MS of 5-chlorotryptophan in transformed C. roseus hairy roots (PyrH) | LC-MS of 7-chlorotryptophan in transformed C. roseus hairy roots (RebH) | Km [1] [µM] | kcat [1] [s⁻¹] | Km [2] [µM] | kcat [2] [s⁻¹] | Km [3] [µM] | kcat [3] [s⁻¹] |
| --- | --- | --- | --- | --- | --- | --- | --- | --- |
| N[C@@H](Cc1c[nH]c2ccccc12)C(=O)O [compound 1, tryptophan] | we observed accumulation of 5-chlorotryptophan 1b | formation of chlorinated tryptophan 1a and 1b and chlorinated alkaloids in both the RebH/RebF | – | – | – | – | – | – |
| B1 | – | – | 499 ± 74 | 0.0267 ± 0.00067 | 538 ± 48 | 0.0417 ± 0.0013 | 51.7 ± 9.2 | 0.085 ± 0.0017 |
